Biological target: the molecule itself
Experiment: SEC

B1: Pseudomonas aeruginosa kynurenine formamidase KynB, His-tagged (enzyme)
chain: MTSLRYWDISPALDPNTPTWPGDTPFQQEWAARLDEQCPVNVGRITLSPHTGAHVDGPLHYRADGLPIGQVPLDIYMGPCRVIHCIGANPLVTPEHLAGQLDDLPSRVLLRTFERVPANWPEGFCAIAPATIECLAERGVRLVGIDTPSLDPQHSKTLDAHHAVGRHGMAILEGVVLDDVPAGDYELLALPLKFTHLDASPVRAVLRALPTAE
notes: also called PaKynB; PaKynB-His; source: E. coli BL21(DE3)pLysS, purified (HisTrap, SEC Superdex75); not shown: His6, N-terminal, kept
  stoichiometry N: 2

B2: Burkholderia cenocepacia kynurenine formamidase KynB (enzyme)
chain: MDTLWDISPPVSPATPVWPGDTPVAVERVWRMEAGSPVNVARLTLSPHTGAHCDAPLHYDADGAPIGAVPLDTYLGPCRVIHCIGAAPVVRPADVEAALDGVPPRVLLRTYARAAVEQWDSNFCAVAPDTVDLLAAHGVKLIGIDTPSLDPQESKTMDAHRRVRAHRMAILEGIVLDDVPPGDYELIALPLKFATLDASPVRAVLRALPAQAS
notes: also called BcKynB; KFase
  stoichiometry N: 2
